Measured values reported in patent US20160238596.

Tested on: Indicator molecule containing the cleavable sequence GPQGIFGQ with a terminal biotin group connected via a polyethylene glycol spacer/linker (intact)

Sequence of Active MMP-9 (Alere San Diego) (chain, as listed by the source): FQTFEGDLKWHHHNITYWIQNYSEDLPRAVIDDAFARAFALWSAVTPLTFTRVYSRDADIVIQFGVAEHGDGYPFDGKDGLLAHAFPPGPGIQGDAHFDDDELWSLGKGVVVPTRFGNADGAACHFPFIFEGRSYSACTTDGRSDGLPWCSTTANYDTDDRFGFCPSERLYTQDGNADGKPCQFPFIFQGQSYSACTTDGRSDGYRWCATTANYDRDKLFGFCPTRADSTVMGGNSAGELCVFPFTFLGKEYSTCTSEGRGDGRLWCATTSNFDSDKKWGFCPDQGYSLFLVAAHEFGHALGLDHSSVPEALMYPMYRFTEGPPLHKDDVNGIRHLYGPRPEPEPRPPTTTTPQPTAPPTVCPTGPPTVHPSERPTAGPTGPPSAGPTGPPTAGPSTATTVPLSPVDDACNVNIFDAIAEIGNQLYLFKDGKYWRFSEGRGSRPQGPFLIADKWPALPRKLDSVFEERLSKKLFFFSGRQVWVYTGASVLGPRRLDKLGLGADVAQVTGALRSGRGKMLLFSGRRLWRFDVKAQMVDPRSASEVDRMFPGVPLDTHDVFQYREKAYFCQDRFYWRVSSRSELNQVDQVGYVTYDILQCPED
Sequence of MMP 3 (Enzo) (chain, as listed by the source): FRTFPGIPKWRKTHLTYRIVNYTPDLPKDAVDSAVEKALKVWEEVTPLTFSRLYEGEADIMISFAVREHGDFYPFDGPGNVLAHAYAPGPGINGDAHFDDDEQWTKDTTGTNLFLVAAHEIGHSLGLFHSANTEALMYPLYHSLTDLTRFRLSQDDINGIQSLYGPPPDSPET
Sequence of MMP 9 (Enzo) (chain, as listed by the source): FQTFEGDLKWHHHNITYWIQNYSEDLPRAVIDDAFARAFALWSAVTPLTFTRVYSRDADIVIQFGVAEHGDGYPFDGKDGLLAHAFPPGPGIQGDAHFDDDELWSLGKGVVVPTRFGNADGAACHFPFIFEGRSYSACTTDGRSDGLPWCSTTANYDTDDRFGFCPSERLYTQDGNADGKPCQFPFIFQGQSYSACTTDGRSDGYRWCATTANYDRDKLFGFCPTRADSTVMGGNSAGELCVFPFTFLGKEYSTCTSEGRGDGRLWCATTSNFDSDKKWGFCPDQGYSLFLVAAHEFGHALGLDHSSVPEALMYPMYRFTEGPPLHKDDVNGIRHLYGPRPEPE
Sequence of MMP 8 (Enzo) (chain, as listed by the source): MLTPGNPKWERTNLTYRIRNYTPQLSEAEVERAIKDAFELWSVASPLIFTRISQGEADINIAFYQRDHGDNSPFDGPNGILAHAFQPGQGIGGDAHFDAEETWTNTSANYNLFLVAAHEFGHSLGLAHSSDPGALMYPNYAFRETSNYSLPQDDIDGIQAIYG
Sequence of MMP 2 (Enzo) (chain, as listed by the source): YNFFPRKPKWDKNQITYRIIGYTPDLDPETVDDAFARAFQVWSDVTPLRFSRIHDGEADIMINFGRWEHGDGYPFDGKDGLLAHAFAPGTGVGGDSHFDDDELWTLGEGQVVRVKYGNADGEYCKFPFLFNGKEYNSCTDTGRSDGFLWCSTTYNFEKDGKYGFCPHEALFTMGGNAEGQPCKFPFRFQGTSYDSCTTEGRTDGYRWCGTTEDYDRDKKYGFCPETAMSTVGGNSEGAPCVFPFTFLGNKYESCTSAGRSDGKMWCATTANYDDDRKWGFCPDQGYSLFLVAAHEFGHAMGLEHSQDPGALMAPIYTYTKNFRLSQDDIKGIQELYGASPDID
Sequence of MMP 10 (Enzo) (chain, as listed by the source): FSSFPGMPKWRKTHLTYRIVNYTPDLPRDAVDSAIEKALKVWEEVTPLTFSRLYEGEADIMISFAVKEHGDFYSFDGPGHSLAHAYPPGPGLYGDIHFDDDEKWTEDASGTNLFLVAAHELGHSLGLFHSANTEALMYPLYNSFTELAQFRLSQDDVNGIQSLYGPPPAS

With Active MMP-9 (Alere San Diego) the OD405 (streptavidin plate ELISA with CF1522-AP) at 0.39 ng/ml MMP9 was 0.14 OD405, the OD405 (streptavidin plate ELISA with CF1522-AP) at 0.78 ng/ml MMP9 was 0.14 OD405 and the OD405 (streptavidin plate ELISA with CF1522-AP) at 1.56 ng/ml MMP9 was 0.14 OD405. It also gave an OD405 (streptavidin plate ELISA with CF1522-AP) at 3.13 ng/ml MMP9 of 0.13 OD405, an OD405 (streptavidin plate ELISA with CF1522-AP) at 6.25 ng/ml MMP9 of 0.17 OD405 and an OD405 (streptavidin plate ELISA with CF1522-AP) at 12.50 ng/ml MMP9 of 0.18 OD405. For the same substance, the OD405 (streptavidin plate ELISA with CF1522-AP) at 25.00 ng/ml MMP9 was 0.27 OD405, the OD405 (streptavidin plate ELISA with CF1522-AP) at 50.00 ng/ml MMP9 was 0.5 OD405 and the “detectable limit for MMP-9 (lateral flow, sample volume of 75 µl)” value was “approximately 4 ng/ml”. The reader value (lateral flow, CF1522 gold) at 0.9765625 ng/ml MMP9 was 338 reader units, the reader value (lateral flow, CF1522 gold) at 1.953125 ng/ml MMP9 was 343 reader units and the reader value (lateral flow, CF1522 gold) at 3.90625 ng/ml MMP9 was 413 reader units. For the same substance, the reader value (lateral flow, CF1522 gold) at 7.8125 ng/ml MMP9 was 524 reader units, the reader value (lateral flow, CF1522 gold) at 15.625 ng/ml MMP9 was 882 reader units and the reader value (lateral flow, CF1522 gold) at 31.25 ng/ml MMP9 was 2030 reader units. It also gave a reader value (lateral flow, CF1522 gold) at 62.5 ng/ml MMP9 of 3830 reader units, a reader value (lateral flow, CF1522 gold) at 125 ng/ml MMP9 of 5580 reader units and a reader value (lateral flow, CF1522 gold) at 250 ng/ml MMP9 of 6220 reader units. For the same substance, the reader value (lateral flow, CF1522 gold) at 500 ng/ml MMP9 was 6730 reader units, the reader value (lateral flow, CF1522 gold) at 1000 ng/ml MMP9 was 6770 reader units and the “sensitivity of the MMP9 standard curves (ELISA and Lateral Flow)” value was “sensitivity down to 4 ng/ml”.
Substance MMP 10 (Enzo) has a Reader value (lateral flow, CF1522 gold) at 0.5 µg/ml MMP of 444 reader units.
Work on MMP 9 (Enzo) yielded a Reader value (lateral flow, CF1522 gold) at 0.5 µg/ml MMP of 3840 reader units.
MMP 2 (Enzo) gave a Reader value (lateral flow, CF1522 gold) at 0.5 µg/ml MMP of 1610 reader units.
MMP 3 (Enzo) showed a Reader value (lateral flow, CF1522 gold) at 0.5 µg/ml MMP of 336 reader units.
MMP 8 (Enzo) gave a Reader value (lateral flow, CF1522 gold) at 0.5 µg/ml MMP of 1140 reader units.
